Assay results: paper PMC8094116
Values belong to the substance of their own block, whether it stands above or below them.

What was measured:
[1] = biological target: Microtubules polymerised from tubulin protein (T240; Cytoskeleton), paclitaxel-stabilised (UniProt P02550); assay: co-sedimentation
[2] = biological target: mEGFP–Daple FL (full-length mouse Daple, mEGFP(A206K)-Daple-Flag) (mouse) (UniProt Q6VGS5); assay: single-molecule photobleaching steps and spot intensities
[3] = biological target: mEGFP–Daple FL ΔCT (mouse Daple lacking the CT domain) (mouse); assay: as above
[4] = biological target: mEGFP–Daple NT (N-terminal domain of mouse Daple) (mouse); assay: as above

Kd [1]: 1.46 µM
Substance: mEGFP–Daple FL (full-length mouse Daple, mEGFP(A206K)-Daple-Flag) (from UniProt Q6VGS5 1-2009) (natural protein)

stoichiometry N [2]: 2
Substance: mEGFP–Daple FL (full-length mouse Daple, mEGFP(A206K)-Daple-Flag), Q6VGS5 1-2009

stoichiometry N [3]: 2
Substance: mEGFP–Daple FL ΔCT (mouse Daple lacking the CT domain) (domain or fragment)

stoichiometry N [4]: 2
Substance: mEGFP–Daple NT (N-terminal domain of mouse Daple) (domain or fragment)
